Results on 5 molecules are retold here after paper PMC4686854 (2015).

Experiment [1] addresses T1, mouse SAD-A KD-UBA fragment (kinase domain and UBA domain) (mouse).
T1 chain: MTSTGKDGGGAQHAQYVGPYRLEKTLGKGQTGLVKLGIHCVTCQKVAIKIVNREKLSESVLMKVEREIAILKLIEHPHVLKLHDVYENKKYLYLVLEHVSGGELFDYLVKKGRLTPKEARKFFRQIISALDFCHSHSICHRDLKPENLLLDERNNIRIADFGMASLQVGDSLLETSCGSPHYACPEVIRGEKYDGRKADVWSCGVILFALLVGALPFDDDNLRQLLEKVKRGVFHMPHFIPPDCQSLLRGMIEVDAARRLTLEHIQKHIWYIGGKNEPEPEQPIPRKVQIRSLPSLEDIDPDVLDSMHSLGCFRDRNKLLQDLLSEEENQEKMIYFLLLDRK
Kind of experiment: apparent Ki from trans-inhibition of KD-UBA kinase activity; fragment 506-653; residual activity a=0.14.

In experiment [2] the target is T2, mouse SAD-A KD-UBA fragment (kinase domain and UBA domain) (mouse).
T2 sequence (Q69Z98 whole entry, looked up): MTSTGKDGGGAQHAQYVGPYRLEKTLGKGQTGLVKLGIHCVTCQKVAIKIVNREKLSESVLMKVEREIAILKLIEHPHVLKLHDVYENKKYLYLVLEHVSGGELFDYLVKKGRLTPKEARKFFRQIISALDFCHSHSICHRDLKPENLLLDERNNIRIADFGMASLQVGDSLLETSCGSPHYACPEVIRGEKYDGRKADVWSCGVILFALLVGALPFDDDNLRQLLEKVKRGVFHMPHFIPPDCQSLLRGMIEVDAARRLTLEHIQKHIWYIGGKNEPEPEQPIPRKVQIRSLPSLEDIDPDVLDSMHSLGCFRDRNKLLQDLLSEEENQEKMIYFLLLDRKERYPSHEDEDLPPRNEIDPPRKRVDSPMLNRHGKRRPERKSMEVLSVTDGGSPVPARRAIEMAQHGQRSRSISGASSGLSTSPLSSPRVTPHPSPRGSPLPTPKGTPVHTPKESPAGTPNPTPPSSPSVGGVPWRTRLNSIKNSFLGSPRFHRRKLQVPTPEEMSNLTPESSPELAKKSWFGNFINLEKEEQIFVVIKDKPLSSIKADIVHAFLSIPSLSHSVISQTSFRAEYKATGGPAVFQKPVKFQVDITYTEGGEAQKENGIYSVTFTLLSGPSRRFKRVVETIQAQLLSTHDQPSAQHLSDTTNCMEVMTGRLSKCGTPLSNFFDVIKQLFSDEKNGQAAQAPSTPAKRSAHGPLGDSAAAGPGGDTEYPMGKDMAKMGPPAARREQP

Experiment [3] has as its target T1, mouse SAD-A KD-UBA fragment (kinase …). Kind of experiment: trans-inhibition of KD-UBA kinase activity, non-competitive fit (a = 0.15).
For experiment [4] the target is unchanged. Kind of experiment: apparent Ki from trans-inhibition of KD-UBA kinase activity; residual activity a=0.34.
For experiment [5] the target is unchanged. As to the kind of experiment: apparent Ki from trans-inhibition of KD-UBA kinase activity; residual activity a=0.19.
Experiment [6] has the same target. Kind of experiment: trans-inhibition of KD-UBA kinase activity, non-competitive fit (a = 0.19).

B1: mouse SAD-A C-terminal fragment containing the sequence N terminal to KA1 (506-530) (domain or fragment)
chain: MSNLTPESSPELAKKSWFGNFINLEKEEQIFVVIKDKPLSSIKADIVHAFLSIPSLSHSVISQTSFRAEYKATGGPAVFQKPVKFQVDITYTEGGEAQKENGIYSVTFTLLSGPSRRFKRVVETIQAQLLSTHDQPSAQHLSGIIPKS
modifications: No chemistry outside the sequence. Built as residues 506-653 of the 653-residue isoform: the N-terminal limit 506 comes from the printed 506-530 segment, and the C-terminal limit 653 is inferred from the protein end, as in the 519-653 and 530-653 fragments. In 4YOM entity 2, position 2 = K519, 14 = K531 and 136 = S653; the initiator Met and the LEHHHHHH tag are left out.
On to B1, for which the Ki in experiment [1] was 5.82 µM. Also, the trans-inhibition of the kinase activity of KD-UBA (10 nM) towards Cdc25C peptide; residual activity at the plateau in experiment [2] came out at 15%.

In experiment [2], MSNLTPESSPELAKKSWFGNFINLE (domain or fragment) [chimeric protein: mouse SAD-A residues 506-530 fused to a C-terminal thioredoxin-tag] yielded a trans-inhibition of the kinase activity of KD-UBA (10 nM) towards Cdc25C peptide; residual activity at the plateau of 15%. In experiment [3], this molecule gave a Ki of 7.58 µM.

Take KKSWFGNFINLE [AIS peptide of mouse SAD-A (residues 519-530)]: the Ki in experiment [4] turned out to be 24.8 µM.

For the molecule MSNLTPESSPELAKKSWFGNFINLE [AIS-containing peptide of mouse SAD-A (residues 506-530)], the Ki in experiment [5] worked out at 15.1 µM.

B2: mouse SAD-A AIS-KA1 fragment (residues 519-653) (domain or fragment)
chain: KKSWFGNFINLEKEEQIFVVIKDKPLSSIKADIVHAFLSIPSLSHSVISQTSFRAEYKATGGPAVFQKPVKFQVDITYTEGGEAQKENGIYSVTFTLLSGPSRRFKRVVETIQAQLLSTHDQPSAQHLSGIIPKS
Turning to B2, the Ki in experiment [6] was 5.85 µM.
